Laboratory results: publication PMC10161063 (Proceedings of the National Academy of Sciences of the …, 2023)
Read-outs that look alike come from different tables or passages of the source. Where no end group is shown, it is not given here.

T1: preformed Vac8–tVac17 complex (ITC sample cell) (S. cerevisiae, UniProt P39968;P25591)
T1 sequence 1: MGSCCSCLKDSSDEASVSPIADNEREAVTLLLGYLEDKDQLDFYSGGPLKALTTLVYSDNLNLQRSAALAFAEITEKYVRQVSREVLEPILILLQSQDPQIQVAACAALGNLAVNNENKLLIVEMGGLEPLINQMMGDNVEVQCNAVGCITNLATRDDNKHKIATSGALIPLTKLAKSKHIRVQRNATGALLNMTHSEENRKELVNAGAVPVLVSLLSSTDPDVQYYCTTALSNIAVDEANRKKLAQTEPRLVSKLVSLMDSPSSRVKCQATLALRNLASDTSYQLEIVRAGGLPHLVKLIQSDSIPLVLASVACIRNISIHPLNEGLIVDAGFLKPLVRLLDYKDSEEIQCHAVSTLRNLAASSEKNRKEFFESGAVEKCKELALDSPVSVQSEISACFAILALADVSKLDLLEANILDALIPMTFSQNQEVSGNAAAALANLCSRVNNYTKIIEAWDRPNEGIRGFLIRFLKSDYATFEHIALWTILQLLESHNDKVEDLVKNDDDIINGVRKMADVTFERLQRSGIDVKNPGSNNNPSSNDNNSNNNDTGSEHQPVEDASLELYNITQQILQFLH
T1 sequence 2: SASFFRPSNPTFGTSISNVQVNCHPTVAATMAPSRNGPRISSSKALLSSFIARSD

T2: Vac8 (full length, residues 1 to 578) (S. cerevisiae, UniProt P39968 1-578)
T2 sequence: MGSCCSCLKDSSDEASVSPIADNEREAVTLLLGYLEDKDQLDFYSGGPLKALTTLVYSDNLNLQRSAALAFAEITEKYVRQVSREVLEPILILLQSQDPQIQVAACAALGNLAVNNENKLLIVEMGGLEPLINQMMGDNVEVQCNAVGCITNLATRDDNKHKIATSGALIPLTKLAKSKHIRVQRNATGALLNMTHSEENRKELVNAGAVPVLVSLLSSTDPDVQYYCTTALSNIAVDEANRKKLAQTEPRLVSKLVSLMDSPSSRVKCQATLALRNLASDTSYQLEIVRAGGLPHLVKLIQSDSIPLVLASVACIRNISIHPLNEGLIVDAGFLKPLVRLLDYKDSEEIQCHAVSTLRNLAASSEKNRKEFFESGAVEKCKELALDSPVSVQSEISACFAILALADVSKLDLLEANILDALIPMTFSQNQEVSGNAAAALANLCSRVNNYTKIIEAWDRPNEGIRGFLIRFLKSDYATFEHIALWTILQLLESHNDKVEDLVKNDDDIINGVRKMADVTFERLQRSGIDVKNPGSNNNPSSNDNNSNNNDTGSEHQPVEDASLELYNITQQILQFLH


Assays:
Assay in all cases: ITC
[1] = biological target: T1, preformed Vac8–tVac17 complex (ITC …)
[2] = biological target: T2, Vac8 (full length, residues 1 to 578)
[3] = biological target: T2, Vac8 (full length, residues 1 to 578); remark: listed apart in the source

| Binder | Kd [1] [µM] | Kd [2] [µM] | Kd [3] [µM] |
| --- | --- | --- | --- |
| Nvj1^229–321 (domain or fragment) NREKDCSSSSEVESQSKCRKESTAEPDSLSRDTRTTSSLKSSTSFPISFKGSIDLKSLNQPSSLLHIQVSPTKSSNLDAQVNTEQAYSQPFRY | 10 | 0.71 | – |
| Atg13^567–695 (domain or fragment) GGNSSTSALNSRRNSLDKSSNKQGMSGLPPIFGGESTSYHHDNKIQKYNQLGVEEDDDDENDRLLNQMGNSATKFKSSISPRSIDSISSSFIKSRIPIRQPYHYSQPTTAPFQAQAKFHKPANKLIDNG | 9.02 | – | – |
| Halo-tag-conjugated tVac17 (Vac17 residues 290 to 344) (domain or fragment, also: Halo-tag conjugate) SASFFRPSNPTFGTSISNVQVNCHPTVAATMAPSRNGPRISSSKALLSSFIARSD | – | – | 2.53 |
